T1: GST-Esc2 (Saccharomyces cerevisiae, UniProt Q06340 1-456)
T1 construct: Esc2, Saccharomyces cerevisiae, full-length gene cloned into BamHI/SalI of pGEX-6P-2; pGEX-6P-2 should place GST at the N-terminus (surmised from the vector); also called recombinant glutathione S-transferase (GST)-Esc2; GST-tagged Esc2; source: E. coli BL21 (DE3), purified (glutathione-Sepharose 4B, eluted with reduced glutathione, dialysed)
T1 sequence (looked up): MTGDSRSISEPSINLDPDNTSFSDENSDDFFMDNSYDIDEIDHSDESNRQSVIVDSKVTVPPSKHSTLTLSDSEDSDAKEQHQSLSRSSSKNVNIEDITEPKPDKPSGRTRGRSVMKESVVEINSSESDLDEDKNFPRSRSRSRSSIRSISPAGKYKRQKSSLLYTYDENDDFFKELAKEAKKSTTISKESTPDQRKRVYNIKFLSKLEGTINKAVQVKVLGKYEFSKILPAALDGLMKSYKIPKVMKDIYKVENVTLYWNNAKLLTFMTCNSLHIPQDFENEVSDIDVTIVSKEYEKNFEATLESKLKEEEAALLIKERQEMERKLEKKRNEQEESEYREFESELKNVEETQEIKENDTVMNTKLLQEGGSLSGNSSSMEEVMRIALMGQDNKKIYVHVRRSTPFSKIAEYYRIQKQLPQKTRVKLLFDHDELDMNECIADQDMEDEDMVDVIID


Molecular target: T1, GST-Esc2
Experiment: peptide or protein array; PEPperPRINT microarray of 15-aa peptides covering the entire Mms4 and Mus81 with 14-aa overlaps, printed in duplicate; purified GST-Esc2 in solution, detected with anti-GST DyLight680
Conditions: both partners purified

| binding result | Binder |
| --- | --- |
| binds | EKGTKKRKTRKYIPK (15-aa stretch of Mus81, S. cerevisiae; Immobilised on the array; It is printed as the 'consensus motif' of a response peak of overlapping 15-mers; source: synthetic peptide, printed on a peptide microarray (PEPperPRINT GmbH)) [Mus81 peptide EKGTKKRKTRKYIPK] |
| binds | RSKKSSQVGKLGIKK (15-aa stretch of Mms4, S. cerevisiae; Immobilised on the array; It is printed as the 'consensus motif' of a response peak of overlapping 15-mers; source: synthetic peptide, printed on a peptide microarray (PEPperPRINT GmbH)) [Mms4 peptide RSKKSSQVGKLGIKK] |
